Assay results from the DeepSol protein solubility set.

Experiment: soluble on expression in E. coli; label from the status in PepcDB or PDB records

Sequence | soluble on expression in E. coli
AHHHHHHGSDCGKDYCVKDLSLAEEGWKKIDWVSRFMPVLQYIKREFEEKKPFKGVRIAATLHLEMKTAFLLLTLKAGGAEVSAAASNPLSTQDDVVAALAKAGVKVYAIRGESREQYYEFMHKALDIRPNIIIDDGADMISLVHKERQEMLDEIWGGSEETTTGVIRLRAMEKAGILKFPVIAVNDSYMKYLFDNRYGTGQSTWDGIMRATNLLIAGKNVVVVGYGWCGRGIAMRARGLGATVIVVEVDPIKALEARMDGFLVMDMKEAAKIGDIFVTATGNIKCIRREHFELMKDGAIMANAGHFDVEIWKPDLEKLAVEINNPRPNVTEYKLKDGRRLYLLADGRLVNLVAADGHPAEIMDMSFALQAKAAEYIKDNHERLEPKVYILPREIDEMVARIKLESMGIKIEELTEEQKKYLESWEHGT | soluble
MHERLNFPKVELHLHLDGAVRFDTLIDLSQQKGIPLAGAKTVEELKKVLVTHEPANLSKVLEAFEIFLPVIRGDLAAIERVAYELCEDQHNNGVVYFEGRYSPHLLLCNDYPEVTAAHVVAAVKKGFDRGEKQFGIKARSILCCIRGLDKKFPQLILDLATDLKQLGVVAIDVAGSAHGADEQYEPEVVAAFQEAHKRGIHRTVHAGESGGPKEVIKAIEDMYAERIGHGYRVMRDEEMYLEHFVNSKNVHLEACPYSSVMTGAVPLDWKNHPIARWAKDDVNFSVSRDDPTCFDNSMLSELTLVHKQIGLDVHQLWKAQLNAARSCFLPEDEKAELVKRVEAGEPPRP | not soluble
MISSPHKLTGDIMTKRTKRTRRLFSAEFKLEAAQLVLDQNYSVTEAAQAMNVGKSTMDKWVRQLREERQGKTPKASPMTPEQIEIRELKKKLARLEEHNEILKKATALLMSDSLNNSLEHHHHHH | soluble
MGREMMELNENRALAGGRTGSLRNIKRPLAITEAERQAVRDINLAHLDITSIDFDLFYLRENMELPLDAAAAVAYRLIVGTGLPQKLRCRDDTLLNFILQCRKKYRNVPYHNFYHVVDVCQTIYTFLYKGAVCEKLTELDCFVLLVTALVHDLDHMGLNNSFYLKTDSPLGILSSASGNASVLEVHHCNLAVEILSDPDSDVFEGLDAADRTLAYRSMIDCVLATDMAKHNELLNLFLAAMEKPYQIGDVASRQMMMDVIVKAGDVSNVTKPFDISRLWAMAVTEEFYRQGDMEKEKGVEVLPMFDRSKNTELAKGQIGFIDFVAGPFFKKIVSASLTGMQWTVERVESNRLEWQRTLDVKAAGDGNK | soluble
MEELGYVTDAEINAKLAELKGKVPSVVINELREKLMAKKDSLTPRQLDEIVKRVLEAYGSQAAKYEQISKRVDELGKKLSDLSSQLARLVEALEEKKFAVHEKKAEAVAEKAAEVSEKIEKIEEMLEEKPRKSEIEKKLEELHRKIEELSERVAKEKVEETKARIEELEEKIAKGEEIKPEEIKEIEEEVEELGEFEEAPVEEIVVEEEKPPEPVEEVPVVEEKKEEVIEEVPVEEVVEEEKVPSHVVEEEKVEEEGGREMAEKMKIPEDIASLLFEEEPRKARLEEIPDDVVSIMIALKWLGFLIDRVGIQNLEKVLEFYYDIGWISEKVFNQLLRFAKGTRPHHRDPEWKPAEKLTVQDHLISLLFIERLRGLRITRDVLDKLEREIKMLEKTLDEFYGV | not soluble
MGSDKIHHHHHHMADDETRKYVIPGLERGLTILMALSRSHREMSLAEIVKCVEWPKASVYRAVQTLEYMGFVRRHPSSGLYSLGVSVLRLGFEYVSSLDLVQVGQPVIESLRDRSGCSSHIVIRDGRDVIYVARVSAAGTTTHRVSVGTRLPVHRTSLGRVLLTGMSREAFERLYPDPELPDTRPGAPADREALWQLVQDDRARGYVVGESFFQLGISSIVYPLFTQEGDVAGAISIMVPVHEIPAEDRERLRGYVEDAAMTISEMLGYHDPRARRSDMP | not soluble
MSLQKMKSSRKFLEGEPNIVIRKGELQYKVMKKNKIDINQLQSLLRQAGSFSIQEVEYAILETNGMVSVLPKSDFDKPTNKDLQIPSKSVSLPITLIIDGEIVRDNLKEAGVDEQWLKQELKKKNIDKTEDVLFAEWHKNKPLYTVTYEQSKGHHHHHH | soluble
MGSDKIHHHHHHMGKPTGFMEYDRCEAASVEPKERIKNFNEFHVFLSKENQQKQAARCMDCGVPFCQSGMTIAGMTSGCPLHNLVPEWNDLVYTGNWEQAYNRLHKTNNFPEFTSRVCPALCEKACTCGHWGSPVSVRDNEHGIIETAYANGYAAPKPPKVRTGKKVAIIGSGPSGLAAADQLNQRGHDVTVYEREDRVGGLLMYGIPNMKLDKSIIDRKVNIMKEEGIHFVTGCDVGKDIKPAELYKKYDRVILCCGAKNPRDIKADGRDAKGIYFAVDYLTQNTKSLLNSNLTDGKFVSAKGKNVVIIGGGDTGNDCVGTAIRQGAKSVTQLEMMPCPPTERAANNPWPQWPKVLKTDYGQEEAIAVFGHDPRTYKTTVKEFHKDKNGNLKELTIVSLESKKDEKTGRFMMVPVEGSEKKLPAELVLIAAGFLGTESYVAKAFGVELNARTNVSTQEGHYATNVKNVYVAGDNHRGQSLVVWAIREGREAAREVDESLMGYSYLSVQ | not soluble
MAHHHHHHMDIERLAKNATEITHQSLMLKNIQKEQNNYCKQCGYIYNYDDYMYMYMKRFNLSKWRETSNCLSGRNPYGPFSGGMESSQFDNENCIRCIYCGAIIDTIEMYDHWNGKESYIELNSYREKFIFDKNKKSYWKNKITSLEKNVSLFKEDQNQAYNITYEKCTDCGNDFLHFINIQTRSADEGSTIIYFCPNCKKQTTVNN | not soluble
MTNPTRTKRCGGDVLCGIDNHFQLLLYISENHCQLETKTFFEYFLRIVNKTHDYAILENKKICISHLEHHHHHH | not soluble
MSLKILICSDTHLGAGEKSHCLKDDCYLAFEEILQQANQEDVDLILHSGDFFDDQNPSKYCLTKTMELMRKYLMGKPKNSFDVAYTYEHNQEDNGFSMNQGIKYPMYVIHGNHDIPSGIEHVAGLDILQTAGLVNFIGKAEDISEIDNKTDQTILHLSPILLQKGTTRIALYGMSYKKNEEMNRLWASSQVQIDEPDGDVFKILLIHQDRILRNTLTTFPEELLKDRFNLIVFGHEHSSQVEEGTDVQIIQTGSSFPLSICEFEKAEKFIGLAHINGMKINMNKIALRNVREVFYEVVQMSQMIEGSANLEMVEHYIREEVQNFFDHVNTHSKTMLPLARIIIEYKSLGCIPNLRKMAFEFEKNIVNKGDCIKLKKKIQKREGHHHHHH | soluble
KAFLEDMKKYAETFLEPWFKAPNKGTFQIVYKSRNNSHVNREEVIRELAGIVCTLNSENKVDLTNPQYTVVVEIIKAVCCLSVVK | soluble
MTREHPPEPLDFFIWTVEDVGSWLEEINLGGYRQIFKENGVNGEYLESMSVFTTEQILHFIRRHHMKWGDFITLCKELRRIKVACLKGEQRVRRPWWAPSCLSVVFVKAAKRNRQSRVVSLKLES | not soluble
MGSDKIHHHHHHMSRYLEMLSLFGVAGAHPGGLAFSKAVLQKAAPSPDQPILDAGCGTGQTAAYLGHLLYPVTVVDKDPIMLEKAKKRFANEGLAIPAYQAELEHLPFSSESFSCVLSESVLSFSRLTSSLQEISRVLKPSGMLIGIEAALKKPMPPAEKKQMMDFYGFTCLHEESEWHKLLRSYGFQKTEAMSLLPEDMEFEPTTEMDLSQTIDPIYYDTLQTHYQLMQLYSEYMGHCIFIAYK | not soluble
MNRMKTKQIDRHLAKFAYSEEFVGDTKRSTAAYTSVREDASIGSTHKLPLEVEEFGKMSNTVILGCGLSGMLTALSFAQKGIKTTIFESKSVKSPEFFKDIRTTALTPHSKNFLFSIDIWEELEKFVAEMQDIYVVDNQASEILDLRNDADAVLGYVVKNSDFKKMLLSKITNNPLITLIDNNQYQEVISHNDYSIIKFDDNQIKCNLLIICDGANSKVRSHYFANEIEKPYQTALTFNIKHEKPHENCAMEHFLPFGPFALLPLKDQYASSVIWSTSSDQAALIVNLPVEEVRFLTQRNAGNSLGKITIDSEISSFPLKARIANRYFHNRIVLIADTAHTVHPLAGQGLNQGIKDIEILSMIVSNNGPLQEYQKLRQEDNFIMYKLTDELNNIFSNHSKNLRCLRQIGFKVINNFKPVKNLITSYAMGKR | not soluble
MGSDKIHHHHHHMSASLILTLSCEDKPGIVARVTGNLFEAGGNIREAQQFDDPLSGRFFMRVVFDPAEGSVEHYRAAFAAVADHYAMEWNLRDTTVKRKVILMVSKFDHCLGDLLYRTRIGELPMDVVAILGNHPKEALNISLIGDIPYHHLPITKDTKPQQEAEVKRIVTETGAELVVLARYMQILSDDLAAFLSGRCINIHHSFLPSFKGAKPYHQAHARGVKMIGATGHYVTADLDEGPIIHQDVETVTHADSPDDLVRKGRDVERRVLAEAVRLHLEDRALVNGNKTVVFKS | not soluble
MKKILLLILITGLFSFGNSKNKIPTRKFTSVKISGPRYRLEGAFGILSSKENSSYMNNRFISNSISLLSEWKVQVNEKIDATFGPKVTLDFSFSIFKGLYTYKPNLNLGAEANFNYRIKEKMKVYGGVEIGTGVGISIENANIHKTILTTISKISVGVKINDKYNIGVYLGNNIKGMLGIEAGYTF | not soluble
MAHHHHHHSLITTYKTITSSTQAEFKDKGSRFIAFAYPIRTLADVKKYLDPLKEEHHKARHWCYAYRLGVDGMQFRANDDGEPSGSAGRPILGQIDSVGITDVLVVVVRYFGGTLLGVPGLIHAYKEATAQALAVAEVVEKNIEKTVWLKCEYPFLNEAIRIAKQYQADILERDLQLDCRLTVSLSLVNYEACVAAWKNTRQIEVNTEKPFEEG | soluble
SLIDNPHAQDCWPNQGHMDVQGLTVKYTEAGRSVLQDLSFTVEGGQSVGVLGRTGSGKSTLLSALLRLASTDGEISIDGVSWNSVTLETWRKAFGVVPQKIFILTGTFRMNLDPHARYSDEELWRVAEEVGLKSVIEQFPDKLDFQLEDGGYVLSNGHKQLMCLARSILSKARILLLDEPSAFLDPITLQVLRKTLKQSFSNCTVILSEHRVEPLLECDSFLMIEGSSMKRYDSIQKLLNETSDLKQAMSAAE | soluble
MKTGPLNESELEWLDDILTKYNTDHAILDVAELDGLLTAVLSSPQEIEPEQWLVAVWGGADYVPRWASEKEMTRFMNLAFQHMADTAERLNEFPEQFEPLFGLREVDGSELTIVEEWCFGYMRGVALSDWSTLPDSLKPALEAIALHGTEENFERVEKMSPEAFEESVDAIRLAALDLHAYWMAHPQEKAVQQPIKAEEKPGRNDPCPCGSGKKFKQCCLH | not soluble
MSNNNSGSSNQLLVRGAEQALDQMKYEIAQEFGVQLGADATARANGSVGGEITKRLVSLAEQQLGGGVTR | soluble
MDEEPERTKRWEGGYERTWEILKEDESGSLKATIEDILFKAKRKRVFEHHGQVRLGMMRHLYVVVDGSRTMEDQDLKPNRLTCTLKLLEYFVEEYFDQNPISQIGIIVTKSKRAEKLTELSGNPRKHITSLKKAVDMTCHGEPSLYNSLSIAMQTLKHMPGHTSREVLIIFSSLTTCDPSNIYDLIKTLKAAKIRVSVIGLSAEVRVCTVLARETGGTYHVILDESHYKELLTHHVSPPPASSSSECSLIRMGFPQHTIASLSDQDAKPSFSMAHLDGNTEPGLTLGGYFCPQCRAKYCELPVECKICGLTLVSAPHLARSYHHLFPLDAFQEIPLEEYNGERFCYGCQGELKDQHVYVCAVCQNVFCVDCDVFVHDSLHCCPGCIHKIPAPSGV | soluble
DYKDDDDKVKLYKTNKYGTLYKSESASFTANTDIITRLTGPFRSMPQSGVLRKGLTIKYDEVMKQDGHVWVGYNTNSGKRVYLPVRTWNESTGELGPLWGTIK | soluble
MKAMKSLGADLDKALGRLSGGLYIITAKKGDVSSAMLASWVNQASFKPLGFSIAVAKDRAIESLMQVGDRFVLNVLEEGNYQPLMRHFLKRFAPGADRFEGVKTQPAENGAPILGDALAYMECEVVSRMDCGDHWAVYSTVYAGRVSKSEALTAVHHRKVGNHYLEHHHHHH | soluble
